One block for each binder: values may come before it.
What was measured:
Conditions in all cases: remark: other sources report otherwise
GDF8, O14793 [1] = test: Biacore SPR; † very low signal
GDF8, O14793 [2] = test: Biacore SPR
BMP7, P18075 = target: T1, BMP7, P18075; test: Biacore SPR
T1 chain: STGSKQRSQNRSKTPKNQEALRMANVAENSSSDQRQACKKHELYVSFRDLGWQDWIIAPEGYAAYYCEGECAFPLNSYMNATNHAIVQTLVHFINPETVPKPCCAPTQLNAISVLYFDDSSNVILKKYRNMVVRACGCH

Chain of GDF8, O14793 (O14793 267-375 limits assumed): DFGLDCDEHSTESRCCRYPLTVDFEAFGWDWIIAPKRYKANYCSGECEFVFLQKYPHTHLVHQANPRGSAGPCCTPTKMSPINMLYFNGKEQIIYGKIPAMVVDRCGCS

- Kd (GDF8, O14793 [1]): 15 nM
- koff (GDF8, O14793 [2]): 0.0019 s⁻¹
- kon (GDF8, O14793 [2]): 130000 M⁻¹ s⁻¹
B1: ALK4-Fc homodimer, P36896 24-126 (Fc fusion, UniProt P36896 24-126, looked up, not shown: a dimerising Fc or GST)
chain: SGPRGVQALLCACTSCLQANYTCETDGACMVSIFNLDGMEHHVRTCIPKVELVPAGKPFYCLSSEDLRNTHCCYTDYCNRIDLRVPSGHLKEPEHPSMWGPVE

- Kd (BMP7, P18075): 15 nM
- koff (BMP7, P18075): 0.018 s⁻¹
- kon (BMP7, P18075): 1.2e+06 M⁻¹ s⁻¹
B2: ALK3-Fc homodimer, P36894 24-152 (Fc fusion, UniProt P36894 24-152, looked up, not shown: a dimerising Fc or GST)
chain: QNLDSMLHGTGMKSDSDQKKSENGVTLAPEDTLPFLKCYCSGHCPDDAINNTCITNGHCFAIIEEDDQGETTLASGCMKYEGSDFQCKDSPKAQLRRTIECCRTNLCNQYLQPTLPPVVIGPFFDGSIR

— patent publication US20190225669A1
